Assay results taken from the supplement of paper PMC12042874.
± gives the uncertainty stated by the source.

Test: amyloid nucleation score (Sup35N fusion, yeast selection) (log enrichment); library NNK1; higher = more nucleation; inactive = no reads after selection
How it was run: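 Three technical output replicates were used for random libraries. Psi-negative yeast expressing peptides of 20 random codons fused to Sup35N were induced with 100 μM copper sulfate for 24 hours and grown 7 days at 30°C on medium lacking adenine and uracil, and input and output plasmid inserts were Illumina-sequenced, excluding sequences with under 100 input reads. The nucleation score is the DiMSum log enrichment of output over input reads, centred on the mode score of non-aggregating sequences.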
With VFGLLPVSSCIVRNRRDLRN the amyloid nucleation score was -0.371 ± 0.27.
LRCRQKKYAAYRGTAVYWLL showed an amyloid nucleation score of -0.236 ± 0.76.
KSFNVLCHIAVVPNRWVGRT gave an amyloid nucleation score of 2.49 ± 0.13.
For RFFGFS, the amyloid nucleation score was -0.63 ± 1.1.
Work on FQSDYRRRMFVMSD yielded an amyloid nucleation score of -1.03 ± 1.4.
SHFFLIT showed an amyloid nucleation score of -0.48 ± 1.5.
Work on FFKLKHGNTDRSYIYYVGCA yielded an amyloid nucleation score of -0.01 ± 0.21.
For SVAIASLFFLSFNFVDIRLL, the amyloid nucleation score was 0.832 ± 0.15.
TILGVITKIVQTLLWMPWVA gave an amyloid nucleation score of -1.37 ± 0.9.
In the case of DSRPCGYSRITFVCKGCAPC, the amyloid nucleation score is reported as 0.53 ± 0.79.
Substance LDLSSWGTVP has an amyloid nucleation score of 0.122 ± 0.44.
Substance FMALLQLAGVIWVSLTVLTP has an amyloid nucleation score of 0.08 ± 0.62.
Substance KRLLFKYRSVNRHTYLFIPV has an amyloid nucleation score of -0.616 ± 0.28.
With YDTTTHMRISMVGSSQPVCL the amyloid nucleation score was -0.327 ± 0.3.
MDCWENVIRQKASSSGWLEN gave an amyloid nucleation score of -0.725 ± 0.52.
INLGLVGSRFGSNMERLYGG gave an amyloid nucleation score of 0.503 ± 1.1.
With MCSLYFLYGAGVSCGSVLNV the amyloid nucleation score was 0.063 ± 0.4.
EYLFLRRM showed an amyloid nucleation score of 2.92 ± 0.089.
Substance KSIRVNTMHRC has an amyloid nucleation score of 2.19 ± 0.3.
KGNYFRVTVYSAGFIQLLMS gave an amyloid nucleation score of 6.393 ± 0.049.
For AVVHSRYRVSVCGDQDLSPL, the amyloid nucleation score was -0.086 ± 0.41.
For RSSSDKPSKTTTWRMLAGTG, the amyloid nucleation score was -0.113 ± 0.7.
Work on WQQWGRSPRTR yielded an amyloid nucleation score of 0.368 ± 0.46.
AVFGRLMVVDVYVSRSALTS gave an amyloid nucleation score of 0.043 ± 0.94.
Work on TYVLTP yielded an amyloid nucleation score of -0.454 ± 1.6.
In the case of TFVLRCFSRCDGAITFQTRP, the amyloid nucleation score is reported as 1.14 ± 0.2.
VSCSDSMAFPSKSCF showed an amyloid nucleation score of 0.712 ± 0.34.
RSSVVWLWSHYC gave an amyloid nucleation score of 0.588 ± 0.56.
For DTNIHRVEFLISFFGRELSQ, the amyloid nucleation score was “inactive”.
Substance FAKLYLKSISVLLMHTDWVF has an amyloid nucleation score of 0.684 ± 0.62.
In the case of DMSIKFCEPDFLLRNEQHNL, the amyloid nucleation score is reported as 0.382 ± 0.3.
Work on LYSLVGCWTLCLNVSCFEWL yielded an amyloid nucleation score of 4.93 ± 0.064.
With VTVFEILWGMTT the amyloid nucleation score was “inactive”.
TKVFGRYLVVSGRFCIIEKK showed an amyloid nucleation score of -0.371 ± 0.38.
For GKLSCYPCTGCL, the amyloid nucleation score was -0.109 ± 1.4.
Substance LKAHPSVTSCPVRSLI has an amyloid nucleation score of -0.281 ± 0.39.
With PIMWCWHAVMSLS the amyloid nucleation score was “inactive”.
For DHHRFRGLL, the amyloid nucleation score was 0.657 ± 0.62.
LLNAAHIEGT gave an amyloid nucleation score of 0.064 ± 0.59.
For RWSQNMGSKSVRGTKFNLKL, the amyloid nucleation score was 0.846 ± 0.21.
For TLWVNIG, the amyloid nucleation score was -1.44 ± 2.7.
In the case of CFIRLNNWLF, the amyloid nucleation score is reported as 1.59 ± 0.46.
With HWTPC the amyloid nucleation score was “inactive”.
Work on GMYLFECCYMGRRFSSWVGN yielded an amyloid nucleation score of 0.055 ± 0.47.
Substance RSMYSQCVLIMGAPTRISGL has an amyloid nucleation score of 6.295 ± 0.054.
Work on MKRVWSYIAGKNARNLKGRL yielded an amyloid nucleation score of 0.174 ± 0.41.
TDYRFTRVWRRGVARS gave an amyloid nucleation score of 0.707 ± 0.55.
Substance RLCAINHPLCTFSQTMAWVH has an amyloid nucleation score of 0.272 ± 0.29.
Work on SWGFSMLRMEEWRMPVLFYS yielded an amyloid nucleation score of -0.446 ± 0.58.
Work on HPFKLGVFNISGESLSTA yielded an amyloid nucleation score of -0.802 ± 2.1.
TLFRGMGYSWNVNKPDARKV showed an amyloid nucleation score of -0.403 ± 1.4.
For YSFLNYLLTRFDIIFLAAED, the amyloid nucleation score was “inactive”.
For ECYQKTGVCRK, the amyloid nucleation score was -0.447 ± 0.89.
YIKWSMIRFT gave an amyloid nucleation score of -0.66 ± 0.46.
Work on SMLALGFPSVNCQWTGATFS yielded an amyloid nucleation score of 1.22 ± 0.97.
LICNFRLSRYQSAVNVVYWV showed an amyloid nucleation score of 0.802 ± 0.14.
For DLCATDMGGYKRGEGPEGAL, the amyloid nucleation score was -0.267 ± 1.1.
Work on SFSNVRNI yielded an amyloid nucleation score of -1.52 ± 0.81.
With SMLAFQMITKQRQHSFWMWT the amyloid nucleation score was -0.766 ± 0.39.
Work on LVPWGSFFALA yielded an amyloid nucleation score of -0.146 ± 0.97.
With VDLNSGQSMNLGTYECRSNV the amyloid nucleation score was -1.49 ± 1.8.
With PGNGTGVSTDGWVTLMHRRR the amyloid nucleation score was -0.709 ± 0.53.
For NTQRTLIFSPMFVSRRLNLA, the amyloid nucleation score was 2.64 ± 0.16.
Work on SKCCDSSRARVASSYS yielded an amyloid nucleation score of 0.261 ± 0.36.
For FTWIVFANSSAYFRTLQWSC, the amyloid nucleation score was 0.032 ± 0.28.
KGCAIGRRAINSCYQSGWIW gave an amyloid nucleation score of 1.6 ± 0.57.
In the case of KAVFDNLLTCPILVIGSTPA, the amyloid nucleation score is reported as -0.956 ± 0.93.
For MDSCFVLAHVAGNRMVLWNA, the amyloid nucleation score was 0.268 ± 0.43.
For TATDPLLSYGAHL, the amyloid nucleation score was -0.354 ± 0.31.
In the case of YSNLSCSQTDVRSLR, the amyloid nucleation score is reported as 0.494 ± 0.49.
